Values of other authors in paper PMC7508936.

Molecular target: galectin-1 (Homo sapiens) (UniProt P09382)
Chain of UniProt P09382 (P09382 2-135): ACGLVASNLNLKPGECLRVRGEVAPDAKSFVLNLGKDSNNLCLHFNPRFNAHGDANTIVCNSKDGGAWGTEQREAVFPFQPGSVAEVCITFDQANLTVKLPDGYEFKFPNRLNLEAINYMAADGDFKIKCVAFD

Kd: 130 nM
Substance: PSG1 (from UniProt P11464)
